Here are results for 1 molecule from paper PMC6715450 (Nature, 2019).

The target in the experiment is human apo-Calmodulin (cryo-EM complex) (human, UniProt P0DP23). Kind of experiment: cryo-EM structure.

B1: full-length SidJ (cryo-EM complex) (enzyme)
chain: MFGFIKKVLDFFGVDQSEDNPSETAVETTDVSTKIKTTDTTQEESSVKTKTVVPTQPGGSVKPETIAPDQQKKHQIKTETTTSTTKQKGPKVTLMDGHVKQYYFARRGETSTHDTSLPPPVKVLSGRSIPLKEIPFEATRNELVQIYLTSIDKLIKSNKLNSIPSQQIASHYLFLRSLANSETDGIKKNQILSLAKPLGTYLASKEPHVWKMINELIEKSEYPIIHYLKNNRAHSNFMLALIHEYHKEPLTKNQSAFVQKFRDSSVFLFPNPIYTAWLAHSYDEDSSFNPMFRERLSTNFYHSTLTDNLLLRTEPKEVTLSSEHHYKKEKGPIDSSFRYQMSSDRLLRIQGRTLLFSTPQNDVVAVKVQKKGEPKSTLEEEFEMADYLLKHQRRLDVHSKLPQPLGQYSVKKSEILEISRGSLDFERFKTLIDDSKDLEVYVYKAPQSYFTYLHDKNQDLEDLTASVKTNVHDLFVLLREGIVFPQLADIFHTHFGEDEREDKGRYQALVQLLNVLQFQLGRIDKWQKAVEYVNLRSSGLADLGDSLPITSLFTSSDFTKHYFSELLTGGYHPTFFDKSSGTANSLFTGKRRLFGNYLYLNTIAEYLLVIQLTLGSYGDKVTRDMMDKPKKEAVWRELANVMFTSCAEAIHIMTGIPQSRALTLLKQRANIEKHFRQTQFWMTPDYSKLDEDTLQMEQYSIYSGEPEYEFTDKLVSGVGLSVDGVHQDLGGYNRESPLRELEKLLYATVTLIEGTMQLDKEFFKQLEQVEKILSGEIKTDANSCFEAVAQLLDLARPGCHFQKRLVLSYYEEAKLKYPSAPTDAYDSRFQVVARTNAAITIQRFWREARKNLSEKSDIDSEKPESERTTDKRL
B1: the binding result is reported as “binds”.
